Source: the nanobody polyreactivity screen of Harvey et al. (2022)

Assay: yeast display, Sf9 membrane polyspecificity reagent, FACS + sequencing; frameworks hold sequencing errors
Outline: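 Nanobodies came from a synthetic yeast display library in Saccharomyces cerevisiae BJ5465, induced with galactose for 36–48 hours and stained for 1 hour at 4 °C with 10% biotinylated, detergent-solubilized Sf9 membrane reagent. Cells were enriched on streptavidin microbeads and then FACS-sorted, with low and high (top ~1%) gates set on anti-HA fluorescence for expression and streptavidin fluorescence for reagent binding. Each polyreactivity label reflects the gate a clone came from. Genes were amplified by colony PCR, sequenced by MiSeq 2 × 250 and filtered by CDR length.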

Sequence | polyreactivity (PSR sort gate)
QVQLVESGGGLVQAGGSLRLSCAASGSIFTRYVMGWYRQARGKERELVASISGRGSSTYYADSVKGRFTISRDNAKNTVYLQMNSLKPEDTAVYYCAAEIVVFYSEGQRNTFYYWGQGTQVTVSS | high polyreactivity
QVQLVESGGGLVQAGGSLRLSCAASGNTFSAYAMGWYRQAPGKERELVAAISSRGGSTYYADSVKGRFTISRDNAKNTVYLQMNSLKPEDTAVYYCAAGYRGVANRKWIYYYWGQGTQVTVSS | high polyreactivity
QVQLVESGGGLVQAGGSLRLSCAASGRIFYLYAMGWYRQAPGKERELVATINSGGSTKYADSVKGRFTISRDNAKNTVYLQMNSLKPEDTAVYYCNAKRWKDYYPYQSWKYGYWGQGTQVTVSS | high polyreactivity
QVQLVESGGGLVHAGGSLRLSCAASGSIFTKYVMGWYRQAPGKERELVAAITYSGGNTYYADSVKGRFTISRDNAKNTVYFQMNSLKPEDTAVYYCAAKSSAHRGGYWGQGTQVTVSS | high polyreactivity
QVQLVESGGGLVQAGGSLRLSCAASGSIFNYYAMGWYRQAAGKERELVAVITSGGSTYYAESVKGRFTISRDNAKYSVYLQMNSLKPEDTAVYFCAADDGTGEASVSSNLYDYWGQGTQVTVSS | low polyreactivity
QVQLVESGGGLVQAGGSLRLSCAASGRTILHYAMGWYSQAPGKERELVASISSGVSTHYADSVKGRFTISRDNAKNTVYLQMNSLIPEDTAVYDCAARPYRIGRYGYDYDYWGQGTQVTVSS | high polyreactivity
QVQLVESGGGLVQAGGSLRLSCAASGSTFDGNAMGWYRQAPGKESELVAAISWSGGSTYYADSVKGRFTISRDNAKNSVYLQLNSLKPEDTAVYYCNAVHYPYQHMGSWGQGTQVSVSS | low polyreactivity
QVQLVESGGGLVQAGGSLRLSCAASGNIFRAYAMGWYRQAPGKERELVARISASGGSTYYADSVKGRFTISRDNAKNTVYLQMNSLKPEDTAVYYCAARVRVRLGRNWSSYYYWGQGTQVTVSS | high polyreactivity
QVQLVESGGGLVQAGGSLRLSCAASGLIFKKYTMGWYRQAPGKERELVASISKSGGSTYYADSVKARFTISRDNAKNTVYLQMNSLKPEDTAVYYCAVGSTDRVSAQGSYFTYDYWGQVTQVTVSS | low polyreactivity
QVQLVESGGGLVQAGGSLRLSCAASGRTFYSYTMGWYRQAPGKERELVAAINRGGSTYYADSVKGRFTISRDNAKNTVYLQMNSLKPEDTAVYYCNVDWKVYGAPDYRIAWKYDYWGQGTQVTVSS | low polyreactivity
QVQLVESGGGLVHAGGSLRLSCAASGFTIERYAMGWYRQAAGKERELVAVISTSGGSTYYADSVNWRYTITRDNAKNSVYLQMNSLKPEDTAVYYCAKDGSSRGDYHFGWGYYYWGQGTQVTVSS | low polyreactivity
QVQLVESGGGLVQAGGSLRLTCAASGFILKYYAMGWYRHAPGKERHLVAAITVSGGSTYYADSVKGRFTISRDNAKNTVYLQMNSLKPEDTAVYYCNADYPRGGAGLLDYWGQCTQVTVSS | low polyreactivity
QVQLVESGGGLVQAGGSLRLSCAASGSIFYINDMGWYRQAPGTERELVAAISWSGGTTYYADSVKGRFTISRDNAKNTVYLQMNSLKPEDTAVYYCATDSFFLFPWGLSDYWGQGTQVTVSS | low polyreactivity
QVQLVESGGGLVQAGGSLRLSCAASGRTFNTYAMGWYRQAPGKERELVAAISRTGASTYYADSVKGRFTISRDNAKNTVYLQMNSLKPEDTAVYYCAADANSGDGYYWGQGTQVTVSS | high polyreactivity
QVQLVESGGGLVQAGGSLRLSCAASGITFYIYAMGCYRHAPGKERELVAAISSTGGSTYYADSVKGSFTISRDNAKNTVYLQMNSLKPEDNAVYYCNAVFRGTGDYWGQGTQVTVSS | high polyreactivity
QVQLVESGVGLVQAGGSLRLSCAASGRTFRPYALGWYRQAPGNERELVAAIDSGGSTYADSVKGRFTISRDNAKTTVYLQMNSLKPEDTAVYYSAAVTQTAWLWYGYWGQGTQVTVSS | low polyreactivity
QVQLVESGGGLVQAGGSLRLSCAASGRTFRWYAMGWYRQAPGKERELVAAITSGGGTYYADSVKGRFTIARDNAKNTVYLQMNSLKPEDTAVYYCNKLHRDRYDYWGQGTQVTVSS | high polyreactivity
QVQLVESGGGLVQAGGSLRLSCAASGSTFRYNAMGWYRQAPGKERELVAAITSGGRTTYADSVKGRFTISRDNAKNPVYLQMNSLKPEDTAVYYCAARRYGRNWHYDYWGHGTQVTVSS | high polyreactivity
QVQLVESGGGLVQAGGSLRLSCAASGYTFYAYAMGWYRQAPGKERELVAAISGSGGNTRYADSVKGRFTISRDNAKNTVYLQMNSLKPEDTAVYYCAAVGWAYNSRYDYWGQGTQVTVSS | high polyreactivity
QVQLVESGGGLVQAGGSLRLSCAASGRIFDIYAMGWYRQAPGKERELVAAITNSGVSTYYADSVKGRFTISRDNAKNTVYLQMNSLKPEDTAVYYCNAGDFERAVVVFIQHGGYYWGQGTQVTVSS | low polyreactivity
QVQLVESGGGLVQAGGSLRLSCAASGLIFYGNAMGWYRQAPGKERELVAAISRRGGRTYYADSVKGRFTISRDKAKNTVYLQMKSLKPEDTAVYYCAADVIYSGDYWGQGTQVTVSS | high polyreactivity
QVQLGESGGGLVQAGGSLRLSCAASGSIFEVYAMGWYRQAPGKERELVAAINYTGGSTYYADSVKGRFTISRDNAKNTVYLQMNSLKPEDTAVYYCARDTSGIGTRYDYWGQGTQVTLSS | low polyreactivity

Sequence | polyreactivity (PSR sort gate)
QVKLVESGGGLVQAGGSLRLSCAASGRIFYYNAMGWYRQAPGKERELVSAIRVRGGSTYYADSVKGRFTISRDNAKNTVYLQMNSLNPEDTAVYYCNSSDYKISATNAVVRYYYWGQGTQVTVSS | high polyreactivity
QVQLVESGRGLVQAGGSLRLSCAASGVTFNVYAMGWYREAPGKVRELVAAISYNGGRTYYADSVKGRFTISRDNAKNTVYLQINSLKPEDTAVFYCAALYYFTPSDGRRYDYWGQCTQVTVSS | high polyreactivity
QVQLVESGGGLVQAGGSLRLSCAASGSIFYYYVMGWYRQAPGKERELVAAISSGGGTNYADSVKGRFTISRDNAKNTVYLQLNRLKPEDTAVYYCAKASAYGLANDYDYWGQGTLVTVSS | low polyreactivity
QVQLVESGGGIVQAGGSLRLSCAASGRIFYYYAMGWYRQAPGKESELVAAISRSGGRTYYADSVKGRFTISRDNAKNTVYLHMNSLKPEDTAVYYCNVVRQGGTLGYDYWGQGTQVTVSS | high polyreactivity
QVQLVESGGGLVQAGCSLRLSCAASGSIVDPYAMGWYRQAPRKEREWVAAISGSGGSTYYADSVKGRFTISRDNAKNTVYLQMNSLKPVDTSVYYCAAADAWWGRRYKYYHWGQGTQVTVSS | low polyreactivity
QVQLVESGGGLVQAGGSLRLSCAASGSIFDRNAMGWYRQAPGKERELVSAISRGGRTYYADSVKGRFTISRDNAKNTVYLQMNSLKPEDTAVYDCAAGYPSAWAYTTDDYWGQGTQVTVSS | low polyreactivity
QVQLVESGVGLVQAGGSLRLSCAASGSTFAKYAMGWYRQAPGKERELVASIRLSGGSTYYADSVKGRFTISRDNAKNTVYLQMNSLKPEDTAVYYCAADVIVFYYAPNYWGDIEYGYWGQGTQVTVSS | low polyreactivity
QVQLVESGGGLVQAGGSLRLSCAASGIIFRVYAMGWYRQAPGKERELVASITDRGTRTYYADSVKGRFTISRDNAKNTVYLQMNSLKPEDTAVYYCADEPNYLYWGFFSVGYDYWGQGTQVTVSS | high polyreactivity
QVQLVESGGGLVQAGGSLRLSCAPSGFTFRYNTMAWYRQAPGKERELVAAISSSGSSTYYADSVKGRFTISRDNAKNTVYLQMNSLKPVDTAVYYCNAVHRRTRYGYWGQGTQVTVSS | high polyreactivity
QVQLVESGGGLVQAGGSLRLSCAASGSIFDRYAMGWYRQAPGKESELVAAITCGTSTYYADSVKGRFTISRDNAKNTVYLKMNSLKPEDTAVYYCNKGYSSSMDYWGQGTQVTVSS | low polyreactivity
QVQLVESGGGLVQAGGSLRLSCAASGLTFDGYAMGWYRQAPGKERELVARITRNGGITYYADSVKGRFTISRDNAKNTVYLQMNSLKPEDTAVYYCAAGQRLWKYYGVIGWTVTNYYYWGQGTQVTVSS | high polyreactivity
QVQLVESGGGLVQAGGSLRLSCAPSRFIFGHYAMGWYRQAPGKERELVAGINSSGGSTHYADSVKGRFTISRDNAKNTVYLQMNSLKPEDTAVYYCAADVYRFYAGSRYYYWGQGTQVTVSS | low polyreactivity
QVQLVESGGGLVQAGGSLRLSCAASGSTFETYAMGWYRQAPGKERELVAVITSDGSTNYADSVKGRFTISRDNAKNTVYLQMNSLKPEDTAVYYCNADYGFYVPGYPIYWIYEYWGQGTQVTVSS | low polyreactivity
QVQLVESGVCLVQAGGSLRLSCAASGSTYTYAMGWYRQAPGKERELVADITQSGGSTYYADSVKGRFTISRDNAKKTVYLQMNTLKPEDTAVYYCNAESRHVFEDEYWGQGTQVTVSS | low polyreactivity
QVQLVESGGGLVHAGGSLRLSCAASGSIFTIYAMGWYRQAPGKERELVAAISDRGTRTYYADSVKGRFTISRDNAKNTVYLQMNSLKPEDTAVYYCATDALYTYGYDYWGQGTQVTVSS | low polyreactivity
QVQLVESGGGLVQAGGSLRLSCAASGRIFQYYVMGRYRQAPGKEREWVAAMTSGGGTKYADSVKGRFTISRDNEKNTVYLQMNSLKPEDTAVYYCAAAWFDQYSRYDYWGQGSQVTVSS | low polyreactivity
QVQLVESGGGLVQAGGSLRLSCAASGFTFWRYAMGWYRQAPGKERELVAAISRSGGGTYYADSVKGRFTISRDNAKNTVYLQMNSLKPEDTAVYYCAAALYKGSGELDYWGQGTQVTVSS | high polyreactivity
QVQIVESGGGLVQAGGSLRLSCAASGRNFGANAMGWYRQAPGKERELVASISSSGSRTYYAVSVKGRFTISRDNAKNTVSLQMNSLKPEDSAVYYCAARYWIYRSEYDYWGQGTQVTVSS | high polyreactivity
QVQLVDSGGGLVQAGGSLRLSCAASGRIFGYNAMGWSRQAPGKERELVAAITSDARTNYADSVKGRFTISRDNAKNTVYLQMISLKPEDTAVYYCAARRYPPRMDYWGHGTQVTVSS | high polyreactivity
QVQLVESGGGLVQAGGSLRLSCAASGLTFYAYAMGWYRQAPGKERELVAAIRWSGGRTYYADSVKGRFTISRDTEKNTVYLQMNSLKPEDTAVYYCAAELSWRLYDYEYWGQGTQVTVSS | low polyreactivity
QDQLVESGGGLVQAGGSLRLSCAASAFTLSPNSMGWDRQAPGKEREFVAAISQRGGSTYYADSVKGRFTISRDNAKNTVYLQMNSLKPEDSAVYYCARDTKYKYDYWGQGTQVTVSS | low polyreactivity
